The source of these data is PMC5413884, “Enzyme discovery beyond homology: a unique hydroxynitrile lyase in the Bet v1 superfamily” (Scientific Reports, 2017).

For series [1], the target named is T1, DtHNL1 (Davallia tyermanii, UniProt A0A1C9V3S9).
T1 construct: gene HNL1; dimer; about 20 kDa
Description: benzaldehyde formation at […] nm, Michaelis-Menten fit. Format: biochemical. Conditions: cleavage direction; 50 mM sodium citrate-phosphate pH 5.0, 25 °C.

The target in series [2] is T1, DtHNL1. Description: X-ray crystal structure, soaking. Conditions: active site. Format: binding.
A further series concerns N#C[C@H](O)c1ccccc1. Description: purified protein. It counts as biochemical, Davallia tyermanii. Conditions: cleavage direction, 50 mM sodium citrate-phosphate pH 5.0, 25 °C.
In series [3] the target is Davallia tyermannii hydroxynitrile lyase 1 (DtHNL1) (Davallia tyermannii). The experiment in a line: crystal structure; SeMet-SAD structure at 1.85 Å and native crystals soaked with 4-hydroxybenzaldehyde, benzoic acid or (R)-mandelonitrile; sitting drop vapor diffusion, 16 °C, protein in 10 mM Tris-HCl pH 8.0.
The subject of a further series is O=Cc1ccccc1. The experiment in a line: GC of (R)-mandelonitrile formed, initial rates, Michaelis-Menten fit. Format: biochemical, Davallia tyermanii. Conditions: apparent, synthesis direction, biphasic MTBE/buffer 2:1, 2 M HCN, pH 4.0, 10 °C.
Setting [4] is: crystal soaked with (R)-mandelonitrile.

In general, Km refers to the concentration of substrate that gives half-maximal velocity. The kcat is the number of substrate molecules converted per active site and unit of time at saturation. For orientation: stoichiometry N means a count of units in the complex or per binding partner.

Take `N#C[C@H](O)c1ccccc1` [(R)-mandelonitrile, (2R)-2-hydroxy-2-phenylacetonitrile]: the Km at DtHNL1 [1] came to 300 ± 30 µM. The “X-ray crystal structure, soaking” value on DtHNL1 [2] (setting [4]) is reported as 5E4B (DtHNL1-MXN).

On to `O=C(O)c1ccccc1` [benzoic acid], for which the “X-ray crystal structure, soaking” value at DtHNL1 [2] is given as 5E4D (DtHNL1–BEZ). On to DtHNL3 (Davallia tyermanii), for which, in the series with N#C[C@H](O)c1ccccc1, the Michaelis constant (Km) was 750 ± 80 µM and the kcat came to 356 ± 8 s⁻¹. In the case of `O=Cc1ccccc1` [benzaldehyde], the “X-ray crystal structure, soaking” value at DtHNL1 [2] (setting [4]) is “Bound benzaldehyde (cyan, right) and (R)-mandelonitrile (yellow, left) as observed in a crystal”. In series [3], “Davallia tyermannii hydroxynitrile lyase 1 (DtHNL1) (enzyme)” came in with a stoichiometry N of 2. Regarding DtHNL2 (Davallia tyermanii), in the series on N#C[C@H](O)c1ccccc1, the Km is 450 ± 50 µM and the turnover number (kcat) came out at 156 ± 3 s⁻¹.

Consider DtHNL4 (Davallia tyermanii), for which, in the series on N#C[C@H](O)c1ccccc1, the Km is 630 ± 60 µM and the catalytic constant (kcat) was 272 ± 5 s⁻¹. Consider DtHNL1 (Davallia tyermanii), for which, in the series on O=Cc1ccccc1, the Michaelis constant (Km) was determined as 14000 ± 2000 µM and the kcat stood at 70 ± 7 s⁻¹.
